Substrate in data set [1]: C[C@]12C[C@H](O)[C@H]3[C@@H](CCC4=CC(=O)CC[C@@]43C)[C@@H]1CC[C@@H]2C(=O)CO
Briefly: oxidation kinetics (Km) with recombinant enzyme, HPLC. The format is biochemical, Mus musculus. The note with it: NADP+.

Substrate in data set [2]: C[C@]12CC(=O)[C@H]3[C@@H](CCC4=CC(=O)CC[C@@]43C)[C@@H]1CC[C@@H]2C(=O)CO
The experiment in a line: reduction kinetics (Km) with recombinant enzyme, HPLC. In kind it is biochemical, Mus musculus. The following applies: NADPH.

B1: 11β-hydroxysteroid dehydrogenase type 1 (murine 11βHSD1, m11βHSD1) (Mus musculus) (protein)
chain: NEEFRPEMLQGKKVIVTGASKGIGREMAYHLSKMGAHVVLTARSEEGLQKVVSRCLELGAASAHYIAGTMEDMTFAEQFIVKAGKLMGGLDMLILNHITQTSLSLFHDDIHSVRRVMEVNFLSYVVMSTAALPMLKQSNGSIAVISSLAGKMTQPMIAPYSASKFALDGFFSTIRTELYITKVNVSITLCVLGLIDTETAMKEISGIINAQASPKEECALEIIKGTALRKSEVYYDKSPLTPILLGNPGRKIMEFFSLRYYNKDMFVSN
notes: truncated form of recombinant m11βHSD1 protein (N23Δ)
Regarding B1, in data set [1], the Km was 1.78 ± 0.56 µM, the Vmax was 4.82 ± 0.65 pmol/µg/min and the Vmax/Km was 2.7 L/ug/min x 10^-6. Moreover, in data set [2], the Km came out at 0.20 ± 0.25 µM, the Vmax stood at 8.56 ± 4.06 pmol/µg/min and the Vmax/Km came out at 42.8 L/ug/min x 10^-6.
